In paper PMC3290565 one finds binding data, which are given here for three sequences.

The series concerns the target T1, NalC-His (Pseudomonas aeruginosa K767) (UniProt Q9HXS0).
T1 sequence: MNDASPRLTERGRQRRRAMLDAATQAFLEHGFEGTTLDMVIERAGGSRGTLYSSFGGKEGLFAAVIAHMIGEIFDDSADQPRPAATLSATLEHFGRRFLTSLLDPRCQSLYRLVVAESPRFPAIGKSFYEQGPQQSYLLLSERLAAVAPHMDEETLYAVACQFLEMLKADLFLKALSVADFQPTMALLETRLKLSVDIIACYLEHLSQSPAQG
The series is described as follows: EMSA. (Mobility shift assays separate free from complexed probe on a gel.)
As for “CTAACGAGAAACGCTCTCAGCAAACCGCCTGGAGGCTTGAACGGACCGTCCCGACGGCCCACCATGCGCACCTTCCGACCGCCACCCCGCGAGGCCCGATACCGCTC (double strand) [PA3720-proximal fragment (endpoints II)]”, the binding entry is listed as “binds”.
The same measure for “GAGCGGTATCGGGCCTCGCGGGGTGGCGGTCGGAAGGTGCGCATGGTGGGCCGTCGGGACGGTCCGTTCAAGCCTCCAGGCGGTTTGCTGAGAGCGTTTCTCGTTAGGGTTGACGCTGGTCATTTAAGAACTGTATCGTACAGTACTGTTTTGGCAAGCACTTCCGCTCATTCCTCCGCCTTGCCTCCCCGCAGGAGTCCCCCCA (double strand) [nalC-PA3720 intergenic region]”: “binds”; for “TTAGGGTTGACGCTGGTCATTTAAGAACTGTATCGTACAGTACTGTTTTGGCAAGCACTTCCGCTCATTCCTCCGCCTTGCCTCCCCGCAGGAGTCCCCCCA (double strand) [PA3720-distal fragment (endpoints I)]”: “no binding”.
